Measured values as given in the nanobody polyreactivity screen of Harvey et al. (2022).

Assay: yeast display, Sf9 membrane polyspecificity reagent, FACS + sequencing; frameworks hold sequencing errors
How it was run: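 Nanobodies from a synthetic yeast display library (Saccharomyces cerevisiae BJ5465), induced 36–48 hours with galactose, were stained 1 hour at 4 °C with 10% biotinylated, detergent-solubilized Sf9 membrane reagent, enriched on streptavidin microbeads, then FACS-sorted. Anti-HA (expression) and streptavidin (reagent binding) fluorescence set low and high (top ~1%) gates. Polyreactivity labels come from the gate of origin. Genes were colony-PCR amplified, MiSeq 2 × 250 sequenced and filtered by CDR length.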

Row | Sequence | polyreactivity (PSR sort gate)
1 | QVQLVESGGGLVQAGGSLRLSCAASGRTFLNNAMGWYRQAPGKERELVAAITKSGGSTYYADSVKGRFTISRDNAKNTVYLQMNSLKPEDTAVYYCAAARRYYTYYREDYYYWGQGTQVTVSS | high polyreactivity
2 | QVQLVESGGGLVQAGGSLRLSCAASGRTFLNYAMGWYRQAPGKEREFVAAITWRVGTTYYADSVKGRFTISRDNAKNTVYLQMNSLKPEDTAVYYCAARSRTGRYDYWGQGTQVTVSS | high polyreactivity
3 | QVQLVESGGGLVQAGGSLRLSCAASGRTFLPNAMGWYRQAPGKERELVAVITSGGSTNYADSVKGRFTISRDNAKNTVYLQMNSLKQEDTAVYYCAARRWSSSQGHWGKSAGYGYWGQGTQVTVSS | low polyreactivity
4 | QVQLVESGGGLVQAGGSLRLSCAASGRTFLPNDMGWYRQAPGKERELVAAITDSGGDTYYADSVKGRFTISRDNAKNTVYLQMNSLKPEDTAVYYCAADYYYYGSYYPVEYWGQGTQVTVSS | high polyreactivity
5 | QVQLVESGGGLVQAGGSLRLSCAASGRTFLQYAMGWYRQAPGKERELVATISFSGGSTYADSVKGRFTISRDNAKNTVYLQMNSLKPEDTAVYYCNAGIRYFVVGRSSYDYWGQGTQVTVSS | low polyreactivity
6 | QVQLVESGGGLVQAGGSLRLSCAASGRTFLRYAMGWYRQAPGKEREFVAAISYSGSRTYYADSVKGRFTISRDTAKKTVYLQMNSLKPEDTAVYYCATDSDARVELAGYDYWGQGTQVTVSS | high polyreactivity
7 | QVQLVESGGGLVQAGGSLRLSCAASGRTFLRYTMGWYRQAAGKERELVAVITNGGTRTYYADSVKGRFTISRDNAKNTVYLQMNSLKPEYTAVYYCAARVRYTANYDYWGQGTQVTVSS | high polyreactivity
8 | QVQLVESGGGLVQAGGSLRLSCAASGRTFLRYTMGWYRQAPGKERELVASITRGGSTYYADSVKGRFTISRDNAKNTVYLQMNSLKPEDTAVYYCAAGKALLSRYDYWGQGTQVTVSS | high polyreactivity
9 | QVQLVESGGGLVQAGGSLRLSCAASGRTFLSNAMGWYRQAPGKERELVAAISNGDNTYYADSVKGRFTISRDNAKNTVVLQMNSLKPEDTAVYYCAADQYWSWIYYPVVEYDYWGEGTQVTVSS | low polyreactivity
10 | QVQLVESGGGLVQAGGSLRLSCAASGRTFLVNAMGWYRQAPGKEREFVAAITSRSGRTNYADSVKGRFTISRDNAKNTVYLEMNSLKPEDTAVYYCNAEGYTVKYWYSRYDYWGQGTQVTVSS | high polyreactivity
11 | QVQLVESGGGLVQAGGSLRLSCAASGRTFLWNAMGWYRQAPGKERELITYYADSVKWRFTISRDNAKNTVYLQMNSLKPEDTAVYYCAAEQGSSVLYDSWGQGTQVTVSS | low polyreactivity
12 | QVQLVESGGGLVQAGGSLRLSCAASGRTFLWNDMGWSRQAPGKERELVAAITGSDGTYADSVKGRFTISRDNAKNTVYLQMNSLKPEDTAVYYCAAETYWYFPWKYDYWGQGTQVTVSS | low polyreactivity
13 | QVQLVESGGGLVQAGGSLRLSCAASGRTFLWYTMGWYRQAPGKERELVAAISGSGGSTYYADSVKGRFTISRDNAKNTVYLQMNSLKPEDTAVYYCNAVRGYRYDYWGQGTQVTVSS | high polyreactivity
14 | QVQLVESGGGLVQAGGSLRLSCAASGRTFLYNAMGWYRQAPGKERELVAAIRRGSSTYYADSVKGRFTISRDNAMNTVYLQMNSLKPEDTAVYYCAARGRYRIGPGRYGKRYDYWGQGTQVTVSS | high polyreactivity
15 | QVQLVESGGGLVQAGGSLRLSCAASGRTFLYNAMGWYRQAPGKERELVASISYSGGSTYYADSVKGRFTISRDTAKYTVYLQMNSLKPEDTAGYYCAARFYASQDIRYDYWGQGTQVTVSS | high polyreactivity
16 | QVQLVESGGGLVQAGGSLRLSCAASGRTFLYNARGWSRQAPGKEMELVAAITKSGGSKYYADSVKGRFTISRDNAKNTVYLQMNSLKPEDTAVYYCAAARRYYTYYREDYYYWGQGTQVTVSS | high polyreactivity
17 | QVQLVESGGGLVQAGGSLRLSCAASGRTFLYYAMGWYRQAPGKERELVAGITSGGSTNYADSVKGRFTISRDNAKNTVYLQMNSLKPEDTAVYYCAVDQGYSRTADVNYDYWGQGTQVTVSS | low polyreactivity
18 | QVQLVESGGGLVQAGGSLRLSCAASGRTFLYYVMGWYRQAPGKERELVAAITNRGGSTYYADSVKGRFTISRDNAKNTVYLQLNSLKPEDTAVYYCNAPYGVYWSSTYYYWGQGTQVTVSS | high polyreactivity
19 | QVQLVESGGGLVQAGGSLRLSCAASGRTFMKNTMGWYIQAPGKERELVAVITRNGDSTYADSVKGRFTISRDNAKNTVYLQKNSLKPEDTAVFYCNVGSYRYRRYDYWGQGTQVTVSS | high polyreactivity
20 | QVQLVESGGGLVQAGGSLRLSCAASGRTFNAYTMGSYRPAPGKERELVAAITSSGGNTYYADSVKGRFTISRDNAKNTVYLQMNSLKPEDTAVYYCNTVYLYGTHDYWGQGTQVTVSS | low polyreactivity
21 | QVQLVESGGGLVQAGGSLRLSCAASGRTFNGNAMGWYRQAPGKERELVAGISTSDGSTYYADSVKGRFTISRDNAKNTVYLQMNSLKPVDTAVYDCAAYSHHQFSSSEYYYWGQGTQLTVSS | low polyreactivity
22 | QVQLVESGGGLVQAGGSLRLSCAASGRTFNGYAMGWYRQAPGKERELVAAISSSGGSTYYADSVKGRFTISRDNAKNTVYLQMNSLKPEDTAVYYCAARRANGFNYWGQGTQVTVSS | high polyreactivity

Row | Sequence | polyreactivity (PSR sort gate)
23 | QVQLVESGGGLVQAGGSLRLSCAASGRTFNGYAMGWYRQAPGKERELVAAITWNGGRTSYADSVKGRFTISRDNAKNTVYLQMNSLKPEDTAVYYCATAVLYPYFFSNMDYWGQGTQVTVSS | low polyreactivity
24 | QVQLVESGGGLVQAGGSLRLSCAASGRTFNGYAMGWYRQAPGKERELVASISWSGGRTYYADSVKGRFTISRDNAKNTVYLQMNSLIPEDTAVYYCNAYYYRVPRPWFDYWGQGTQVTVSS | high polyreactivity
25 | QVQLVESGGGLVQAGGSLRLSCAASGRTFNGYVMGWYRQAPGKEREFVAVINWSGGNTYYADSVKGRFTISRDNAKNTVNLQMNSLKPEDTAVYYCAARRVRSYAYDYWGQGTQVTVSS | high polyreactivity
26 | QVQLVESGGGLVQAGGSLRLSCAASGRTFNGYVMGWYRQAPGKERELVAAITNRDGSTYYADSVKGRFTISRDNAKNTVYLQMNSLKPEDTAVYYCAAPVWLWADRYDSWGQGTQVTVSS | low polyreactivity
27 | QVQLVESGGGLVQAGGSLRLSCAASGRTFNIYAMGWYRQAPGKERELVAAISKRGGTTYYADSVKGRFTISRDNAKNTVYLQMNSLKPEDTAVYYCAADRTNPYYGGMDYWGQGTQVTVSS | high polyreactivity
28 | QVQLVESGGGLVQAGGSLRLSCAASGRTFNIYAMGWYRQEPGKERELVAAITNNGGRTYYADSVKGRFTISRDNAKNTVYLQMNSLKPEDTAVYYCAAVSGRSYDKYYYWGQGTQVTVSS | high polyreactivity
29 | QVQLVESGGGLVQAGGSLRLSCAASGRTFNRNAMGWYRQAPGKERELVAAISRGGGGTFYADSVKGRFTISRDNAKNTVYLQMNSLKPEDTAVYYCAAVPIAADKANGYDYWGQGTQVTVSS | low polyreactivity
30 | QVQLVESGGGLVQAGGSLRLSCAASGRTFNRYAMGRYRQAPGKERELVAVITSDGRRNYADSVKGRFTISRDKAKNTVYFQINSLKPEDTAVSYCNKRSALSFVYDFDYWGQGTQVTVSS | low polyreactivity
31 | QVQLVESGGGLVQAGGSLRLSCAASGRTFNSYAMGWSRQAPGKDRELVAAISRTGASTYYADSVKGRFTISRDNAQNTVYLQMHSLKPEDTAVYYCAADANSGDGYYWGHGTQVTVSS | high polyreactivity
32 | QVQLVESGGGLVQAGGSLRLSCAASGRTFNVYAMGWYRQAPGKERELVAVITNGGSTNYADSVKGRFTISRDNAKNTVYLQMNSLKPEDTAVYYCAASWGYGALTPDMGYWGQGTQVTVSS | low polyreactivity
33 | QVQLVESGGGLVQAGGSLRLSCAASGRTFNYNAMGCYRQAPGKERELVAAITSGGRTNYADSVKGRFTISRDNAKNTVYLQMNSLKPEDTAVYYCATEYYRYRWVGAFRYPVYYWGQGTQVTVSS | low polyreactivity
34 | QVQLVESGGGLVQAGGSLRLSCAASGRTFNYNAMGWYRQAPGKERELVAAISWGGGSTFYAVSEKGRFTISRDNAKNTVYLQMNTLKPEDTAVYYCAADRQYGNRGAYYYWGQGTQVTVSS | low polyreactivity
35 | QVQLVESGGGLVQAGGSLRLSCAASGRTFNYSAMGWYRQAPGTERELVAAISSSGGRTYYADSVKGRFTISRDNAKITVYLQMNSLKPEDTAVYYCAADSFYYRPEYDYWGQGTQVTVSS | low polyreactivity
36 | QVQLVESGGGLVQAGGSLRLSCAASGRTFNYYAMGWSRQAPGKERELVAAITSGGRTNYADSVKGRFTISRDNAKNTVYLQMNSLKPEDTAVYYCATEYYRYRWVGAFRYPVYYWGQGTQVTVSS | low polyreactivity
37 | QVQLVESGGGLVQAGGSLRLSCAASGRTFNYYAMGWYRQAPGKERELVAAISGSGGRTYYADSVKGRFTISRDNAKNTVYLQMNSLKPEDTAVYYCNADVGKYPYAHTYWARRYYYLGQGTQVTVSS | high polyreactivity
38 | QVQLVESGGGLVQAGGSLRLSCAASGRTFNYYGMGWYRQAPGKERELVAAINSGDNTYYADSVKGRFTISRDNAKNTVYLQMTSLKPEDTAVYYCNTDAFWYYYSWYDYWGQGTQVTVSS | low polyreactivity
39 | QVQLVESGGGLVQAGGSLRLSCAASGRTFNYYTMGWYRQAPGKERELVAAISWSGDSTYYADSVKGRFTISRDNAKNTVYLQMNSLKPEDTAVYYCAAGYASGPRPQTAYYYWGQGTQVTVSS | low polyreactivity
40 | QVQLVESGGGLVQAGGSLRLSCAASGRTFPFNAMGWYRQAPGKERELVAVINSGGSTYYADSVKGRFTISRDNAKNTVYLQMNSLKPEDTAVYYCNAYSSRYRYNYWGQGTQVTVSS | high polyreactivity
41 | QVQLVESGGGLVQAGGSLRLSCAASGRTFPFYAMGWYRQAPGKEREFVASITRSGGSTNYADSVKGRFTISRDNAKNTVYLQMNSLKPEDTAVYYCNAGAVYWGYSRGWYERDYWGQGTQVTVSS | high polyreactivity
42 | QVQLVESGGGLVQAGGSLRLSCAASGRTFPGKAMGWYRQAPGKERELVAAISKSSSRTYYADSVKGRFTISRDNAKNTVYLQMNSLKAEDTAVYYCAASSFNNGHRYDYWGQGTQVTVSS | high polyreactivity
43 | QVQLVESGGGLVQAGGSLRLSCAASGRTFPGNAMGWYRQAPGKERELVAAITSSGSTNYADSVKGRFTISRDNAKNTVYLQMNSLKPEDTAVYYCNAAWFYVYGVWILDWGQGTQVTVSS | low polyreactivity
